Experimental findings from patent US20250376519A1 (JIANGSU HENGRUI PHARMACEUTICALS, published 2025) are described below.

One assay concerns the target T1, human DLL3 on cells (human, UniProt Q9NYJ7 27-618).
T1 construct: Endogenous on H1184 and SHP77; Cell line is named under assay; also called H1184; DLL3/H82
T1 sequence: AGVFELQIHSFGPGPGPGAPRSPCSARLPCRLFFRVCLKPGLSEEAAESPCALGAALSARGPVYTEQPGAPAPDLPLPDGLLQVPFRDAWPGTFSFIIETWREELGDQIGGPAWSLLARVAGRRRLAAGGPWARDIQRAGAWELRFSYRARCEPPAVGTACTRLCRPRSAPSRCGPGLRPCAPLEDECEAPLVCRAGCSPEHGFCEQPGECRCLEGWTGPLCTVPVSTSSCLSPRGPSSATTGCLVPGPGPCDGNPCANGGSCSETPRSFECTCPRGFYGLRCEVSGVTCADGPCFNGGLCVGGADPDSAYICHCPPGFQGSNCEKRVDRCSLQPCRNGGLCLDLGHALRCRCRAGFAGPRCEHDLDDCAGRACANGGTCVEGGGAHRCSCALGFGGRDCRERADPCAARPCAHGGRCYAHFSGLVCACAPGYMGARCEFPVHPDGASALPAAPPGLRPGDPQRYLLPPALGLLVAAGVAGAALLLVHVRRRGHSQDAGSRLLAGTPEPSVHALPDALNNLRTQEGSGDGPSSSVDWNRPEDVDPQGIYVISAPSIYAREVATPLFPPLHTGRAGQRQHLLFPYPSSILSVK
The experiment in a line: flow cytometry, hDLL3/CHO-s cells. How it is done:
The plates were centrifuged at 300 g for 5 min, and the supernatant was removed. Different concentrations of test antibodies were added at 100 μL/well. The plates were incubated in the dark in a refrigerator at 4° C. for 1 h. After 3 centrifugal washes at 300 g, working concentrations of APC anti-human IgG Fc (BioLegend, 410712) or PE F(ab′)2-goat anti-human IgG (invitrogen, H10104) were added. The plates were incubated in the dark in a refrigerator at 4° C. for 40 min. After 3 centrifugal washes at 300 g, the geometric mean fluorescence intensity was measured on an Invitrogen flow cytometer, and the EC50 values for the binding of the antibodies to DLL3-expressing cells were calculated.

The target of assay [1] is T2, human DLL3 (ACRO, DLL3-H52H4) (human, UniProt Q9NYJ7 27-492).
T2 construct: Bought
T2 sequence: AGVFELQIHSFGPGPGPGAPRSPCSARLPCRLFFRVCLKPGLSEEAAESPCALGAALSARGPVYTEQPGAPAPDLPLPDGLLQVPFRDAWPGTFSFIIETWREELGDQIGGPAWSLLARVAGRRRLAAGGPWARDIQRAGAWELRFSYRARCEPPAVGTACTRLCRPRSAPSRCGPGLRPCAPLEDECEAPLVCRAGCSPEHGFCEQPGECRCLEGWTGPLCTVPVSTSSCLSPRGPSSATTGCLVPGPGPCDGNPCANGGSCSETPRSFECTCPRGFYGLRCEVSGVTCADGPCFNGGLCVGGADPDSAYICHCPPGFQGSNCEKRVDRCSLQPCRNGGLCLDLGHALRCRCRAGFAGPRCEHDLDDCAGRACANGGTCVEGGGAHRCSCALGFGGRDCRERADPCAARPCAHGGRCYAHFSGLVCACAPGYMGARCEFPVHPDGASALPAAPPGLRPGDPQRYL
Kind of assay: SPR Biacore 8K, Ab captured on Protein A. The procedure, abridged:
(§1)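 Antibodies captured on a Protein A chip for 18 s; DLL3 or CD3D&3E antigen flowed 180 s, then 600 s dissociation, with real-time detection. Regeneration used 10 mM glycine-HCl pH 1.5 between cycles. Kinetics were obtained by 1:1 model fitting.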
(SPR reads the build-up and loss of mass on a sensor chip optically.)

The target in assay [2] is T3, cynomolgus monkey DLL3 (KACTUS, DLL-RM103) (cynomolgus monkey, UniProt Q9NYJ7 27-492 (human entry), limits assumed).
T3 construct: Bought
T3 chain: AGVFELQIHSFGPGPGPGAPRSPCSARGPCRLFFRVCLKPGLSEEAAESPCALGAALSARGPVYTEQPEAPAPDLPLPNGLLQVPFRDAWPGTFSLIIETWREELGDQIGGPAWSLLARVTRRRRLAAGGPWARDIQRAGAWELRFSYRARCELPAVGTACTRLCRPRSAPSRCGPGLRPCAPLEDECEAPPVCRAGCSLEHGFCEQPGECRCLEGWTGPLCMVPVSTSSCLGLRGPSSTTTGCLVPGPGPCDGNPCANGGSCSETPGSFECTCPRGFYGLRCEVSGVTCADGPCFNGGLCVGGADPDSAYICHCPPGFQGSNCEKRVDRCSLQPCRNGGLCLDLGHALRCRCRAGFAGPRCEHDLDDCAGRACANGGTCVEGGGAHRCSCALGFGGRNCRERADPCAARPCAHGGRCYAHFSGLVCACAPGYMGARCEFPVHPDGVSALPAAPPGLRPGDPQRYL
Kind of assay: SPR Biacore 8K, Ab captured on Protein A. The procedure, abridged:
as §1

Assay [3] concerns the target T4, mouse DLL3 (KACTUS, DLL-MM103) (mouse, UniProt O88516 33-490, limits assumed).
T4 construct: Bought
T4 sequence: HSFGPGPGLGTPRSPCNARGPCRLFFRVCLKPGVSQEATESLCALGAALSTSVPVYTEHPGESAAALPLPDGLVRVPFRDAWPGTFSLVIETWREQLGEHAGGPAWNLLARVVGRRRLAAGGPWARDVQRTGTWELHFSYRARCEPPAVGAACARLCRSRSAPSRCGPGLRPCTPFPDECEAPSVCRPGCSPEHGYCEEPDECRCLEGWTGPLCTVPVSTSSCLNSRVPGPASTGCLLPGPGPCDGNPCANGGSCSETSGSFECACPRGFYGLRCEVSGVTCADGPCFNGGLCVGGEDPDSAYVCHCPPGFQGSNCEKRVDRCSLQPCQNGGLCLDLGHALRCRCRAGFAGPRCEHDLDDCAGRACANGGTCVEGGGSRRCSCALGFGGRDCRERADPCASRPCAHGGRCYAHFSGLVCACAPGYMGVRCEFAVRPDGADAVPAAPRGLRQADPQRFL
The experiment in a line: SPR Biacore 8K, Ab captured on Protein A. The procedure, abridged: as §1

Assay [4] concerns the target T5, monkey CD3D&3E (ACRO, CDD-C52W4) (cynomolgus monkey, UniProt Q95LI8 22-105; Q95LI5 22-117).
T5 construct: bought CD3 delta/epsilon protein; also called cynomolgus monkey CD3
Kind of assay: SPR Biacore 8K, Ab captured on Protein A. The procedure, abridged:
as §1

T5 sequence (Q95LI8 22-105, chain 1 of 2): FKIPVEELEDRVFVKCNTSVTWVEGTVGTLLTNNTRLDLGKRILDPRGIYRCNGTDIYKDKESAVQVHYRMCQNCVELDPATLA
T5 sequence (Q95LI5 22-117, chain 2 of 2): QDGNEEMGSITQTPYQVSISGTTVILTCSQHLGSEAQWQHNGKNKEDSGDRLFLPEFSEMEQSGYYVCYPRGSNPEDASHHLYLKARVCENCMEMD

B1: hu110-I2C-Y body (bispecific antibody)
light: NIVMTQSPKSLAVSLGERATINCKASENVGIFVSWYQQKPGQSPKLLIYGASNRYTGVPDRFSGSGSATDFTLTISSLQAEDVADYYCGQSHSYPLTFGQGTKLEIKRTVAAPSVFIFPPSDEQLKSGTASVVCLLNNFYPREAKVQWKVDNALQSGNSQESVTEQDSKDSTYSLSSTLTLSKADYEKHKVYACEVTHQGLSSPVTKSFNRGEC
heavy: EVQLVQSGAEVKKPGASVKVSCKTSGYTFTDYYMNWVRQAPGQSLEWMGIINPYQGGTSYTQKFKGRVTITVDKSASTAYMELSSLRSEDTAVYYCARHFYDSSYLTYSTMDYWGQGTTVTVSSASTKGPSVFPLAPSSKSTSGGTAALGCLVKDYFPEPVTVSWNSGALTSGVHTFPAVLQSSGLYSLSSVVTVPSSSLGTQTYICNVNHKPSNTKVDKKVEPKSCDKTHTCPPCPAPEAAGGPSVFLFPPKPKDTLMISRTPEVTCVVVDVSHEDPEVKFNWYVDGVEVHNAKTKPREEQYNSTYRVVSVLTVLHQDWLNGKEYKCKVSNKALPAPIEKTISKAKGQPREPQVCTLPPSREEMTKNQVSLSCAVKGFYPSDIAVEWESNGQPENNYKTTPPVLDSDGSFFLVSKLTVDKSRWQQGNVFSCSVMHEALHNHYTQKSLSLSPGK
chain: not shown
notes: Format 2 (Y body: DLL3 Fab-Fc hole + CD3 scFv-Fc knob)
With B1, in the assay with human DLL3 on cells, the EC50 (usually the midpoint of the concentration-response curve) was found to be 4.52 nM. Also, the Kd – broadly, the concentration at which binding is half-saturated – in assay [1] was 0.125 nM; in assay [2], 0.762 nM; in assay [4], 2.32 nM. In assay [3], the binding result is “no binding”.

B2: hu110-S107E-hot Ig (bispecific antibody)
light 1: NIVMTQSPKSLAVSLGERATINCKASENVGIFVSWYQQKPGQSPKLLIYGASNRYTGVPDRFSGSGSATDFTLTISSLQAEDVADYYCGQSHSYPLTFGQGTKLEIKGGGGSSGAPRFLTRPKASVVSVGKDATLSCQIVGNPFPQVSWEKDKQPVTAGVRFRLAQDGDLYRLKILDLQLSDSGQYVCRARNAHGEAFACLGLQVDAEA
heavy 1: EVQLVQSGAEVKKPGASVKVSCKTSGYTFTDYYMNWVRQAPGQSLEWMGIINPYQGGTSYTQKFKGRVTITVDKSASTAYMELSSLRSEDTAVYYCARHFYDSSYLTYSTMDYWGQGTTVTVSSGGGGSGIPPKIECLPIDISIDEGKVLTVASAFTGEPTPEVTWSTGGRKIHSQEQGRFHIENTDDSTTLTIKDVQKQDGGLYTLTLRNEFGSDSATVNIHIRSIDKTHTCPPCPAPEAAGGPSVFLFPPKPKDTLMISRTPEVTCVVVDVSHEDPEVKFNWYVDGVEVHNAKTKPREEQYNSTYRVVSVLTVLHQDWLNGKEYKCKVSNKALPAPIEKTISKAKGQPREPQVCTLPPSREEMTKNQVSLSCAVKGFYPSDIAVEWESNGQPENNYKTTPPVLDSDGSFFLVSKLTVDKSRWQQGNVFSCSVMHEALHNHYTQKSLSLSPGK
heavy 2: not shown
light 2: not shown
notes: Format 1 (Hot-Ig, Titin/Obscurin-replaced DLL3 Fab), DLL3 x CD3
As for B2, in the assay with human DLL3 on cells, the response was half-maximal at 5.07 nM (EC50). In assay [1], the Kd worked out at 0.113 nM; the koff – broadly, the rate constant with which the complex falls apart – worked out at 2.82e-05 s⁻¹; the kon – broadly, a measure of how fast the partners come together – is 249000 M⁻¹ s⁻¹. Also, in assay [2], the Kd amounted to 0.523 nM, the koff was 6.43e-05 s⁻¹ and the kon was determined as 123000 M⁻¹ s⁻¹. Moreover, the binding result in assay [3] is reported as “no binding”. In assay [4], this molecule displayed a Kd of 39.6 nM, a koff of 0.007 s⁻¹ and a kon of 177000 M⁻¹ s⁻¹.

B3: hu110-I2C-hot Ig (bispecific antibody)
light 1: NIVMTQSPKSLAVSLGERATINCKASENVGIFVSWYQQKPGQSPKLLIYGASNRYTGVPDRFSGSGSATDFTLTISSLQAEDVADYYCGQSHSYPLTFGQGTKLEIKGGGGSSGAPRFLTRPKASVVSVGKDATLSCQIVGNPFPQVSWEKDKQPVTAGVRFRLAQDGDLYRLKILDLQLSDSGQYVCRARNAHGEAFACLGLQVDAEA
heavy 1: EVQLVQSGAEVKKPGASVKVSCKTSGYTFTDYYMNWVRQAPGQSLEWMGIINPYQGGTSYTQKFKGRVTITVDKSASTAYMELSSLRSEDTAVYYCARHFYDSSYLTYSTMDYWGQGTTVTVSSGGGGSGIPPKIECLPIDISIDEGKVLTVASAFTGEPTPEVTWSTGGRKIHSQEQGRFHIENTDDSTTLTIKDVQKQDGGLYTLTLRNEFGSDSATVNIHIRSIDKTHTCPPCPAPEAAGGPSVFLFPPKPKDTLMISRTPEVTCVVVDVSHEDPEVKFNWYVDGVEVHNAKTKPREEQYNSTYRVVSVLTVLHQDWLNGKEYKCKVSNKALPAPIEKTISKAKGQPREPQVCTLPPSREEMTKNQVSLSCAVKGFYPSDIAVEWESNGQPENNYKTTPPVLDSDGSFFLVSKLTVDKSRWQQGNVFSCSVMHEALHNHYTQKSLSLSPGK
heavy 2: not shown
light 2: not shown
notes: as for B2
On to B3, for which the EC50 in the assay with human DLL3 on cells worked out at 4.91 nM. In addition, the figures for the Kd in assay [1], in assay [2] and in assay [4] were 0.119 nM, 0.616 nM and 1.5 nM, respectively. Further, in assay [3], the binding result is given as “no binding”.
